Results as given in article PMC6212398, “Competing protein-protein interactions regulate binding of Hsp27 to its client protein tau” (Nature Communications, 2018).

Experiments:
Hsp27 ΔNTD GPG (human) = Hsp27 ΔNTD GPG (human) (UniProt P04792); test: ITC; peptide (1 mM) titrated into a cell with Hsp27 proteins (100 µM); SEC buffer (50 mM sodium phosphate, 100 mM NaCl); 25 °C; one-site binding model
[1] = molecular target: Hsp27 GPG (isoleucine and valine of the IPV motif mutated to glycine) (human) (UniProt P04792); test: as above

B1: Hsp27 IPV H peptide (…) (peptide)
peptide: EITIPVTHE
With B1 as the binder, how does the Kd (Hsp27 ΔNTD GPG (human)) read?
Its Kd is 14.3 µM.

And the Kd [1]?
The Kd was 10 µM.

What about the stoichiometry N [1] of the same binder?
The stoichiometry N was 0.2.
